How the values were obtained:
[1] = target: C-terminal domain of SepF from M. tuberculosis (tbSepF-CTD, residues 146-241) (M. tuberculosis); assay: AUC
[2] = target: C-terminal domain of SepF from M. tuberculosis (tbSepF-CTD, residues 146-241) (M. tuberculosis); assay: SAXS
[3] = target: C-terminal domain of SepF from M. tuberculosis (tbSepF-CTD, residues 146-241) (M. tuberculosis); assay: ITC

C-terminal domain of SepF from M. tuberculosis (tbSepF-CTD, residues 146-241) (M. tuberculosis), sequence (A1KKJ0 123-218 limits assumed): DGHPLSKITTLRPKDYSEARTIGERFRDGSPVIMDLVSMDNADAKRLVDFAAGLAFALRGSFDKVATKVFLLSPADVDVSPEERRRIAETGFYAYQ

Row | Substance | stoichiometry N [1] | stoichiometry N [2] | Kd [3] | stoichiometry N [3]
1 | C-terminal domain of SepF from M. tuberculosis (tbSepF-CTD, residues 146-241) (domain or fragment) | 2 | 2 | – | –
2 | chemically synthesized 18-residue peptide from the C-terminal region of tbFtsZ | – | – | 19.7 µM | 1
